{"source": "paper PMC12459236", "target": "SpyTag-AP205 recombinant protein (self-assembled AP205 nanoparticles) (bacteriophage AP205)", "assay": "SDS-PAGE of covalent coupling; purified ST-AP205 and CTD-SC mixed at designated molar ratios, left overnight at 4°C; covalent SpyTag-SpyCatcher coupling read by SDS-PAGE"}
{"substance": "PDCoV S1-CTD-SpyCatcher recombinant protein", "values": [{"measurement": "rate of formation of CTDnps (ST-AP205:CTD-SC molar ratio 4:10)", "result": "> 80", "unit": "%"}]}
